Experimental data as given in publication PMC5756609.

Target: FcγR (on DIV 7 primary rat hippocampal cells, Erk phosphorylation assay)

Substance “IgG immune complex (IgG-IC): pre-complexed mouse IgG and rat anti-mouse IgG, 1:1 ratio (w/w)” has a ratio of pErk to Erk (western blot, percentage of vehicle controls) in DIV 7 hippocampal cell cultures exposed for 30 min to IgG-IC at 10 or 100 μg/ml; increased at 10 μg/ml but not at 100 μg/ml of 60.4.
